From patent US20200109196A1 (MOGAM INSTITUTE FOR BIOMEDICAL RESEARCH, published 2020) come the findings set out here.

T1: recombinant human CEACAM-1/CD66a protein (R&D systems; Cat. No. 2244-CM) (human, UniProt P13688 35-428)
T1 construct: Bought protein; captured on anti-His (His1K) biosensors in the Octet assay, so it carries a His tag; also called HCCM1; recombinant CEACAM-1/CD66a protein
T1 sequence (looked up): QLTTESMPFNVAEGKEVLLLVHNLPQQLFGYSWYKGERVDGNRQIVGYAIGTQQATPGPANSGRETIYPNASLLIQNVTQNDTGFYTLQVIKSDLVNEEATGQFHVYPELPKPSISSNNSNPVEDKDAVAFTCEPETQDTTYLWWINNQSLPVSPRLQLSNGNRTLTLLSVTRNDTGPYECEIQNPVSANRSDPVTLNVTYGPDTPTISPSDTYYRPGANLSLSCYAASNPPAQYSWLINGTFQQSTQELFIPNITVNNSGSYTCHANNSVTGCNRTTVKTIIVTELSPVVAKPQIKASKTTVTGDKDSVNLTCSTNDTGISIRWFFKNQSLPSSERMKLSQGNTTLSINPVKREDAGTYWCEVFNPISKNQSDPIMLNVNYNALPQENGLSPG

T2: recombinant human CEACAM1-N domain-Kappa protein (Mogam, in-house production) (human, UniProt P13688 35-142, limits assumed)
T2 construct: domain: N domain; In-house fusion; also called HCCM1-N domain-kappa; HCCM1-N-domain-kappa
T2 sequence (looked up): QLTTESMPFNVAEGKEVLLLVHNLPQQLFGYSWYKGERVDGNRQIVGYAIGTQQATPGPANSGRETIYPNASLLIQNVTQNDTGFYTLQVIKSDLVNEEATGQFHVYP

B1: C19 (antibody, human IgG4 S228P, lambda, V domains shown)
VH: EVQLLESGGGLVQPGGSLRLSCAASGFTFSGYAMSWVRQAPGKGLEWVSGIYHDGGSTYYADSVKGRFTISRDNSKNTLYLQMNSLRAEDTAVYYCARVTVLCTTYGCSSYDGMDVWGQGTLVTVSS
VL: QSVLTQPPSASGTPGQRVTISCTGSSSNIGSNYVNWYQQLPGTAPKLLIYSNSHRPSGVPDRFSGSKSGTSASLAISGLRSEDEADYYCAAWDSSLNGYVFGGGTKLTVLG
B2: C18 (antibody, human IgG4 S228P, lambda, V domains shown)
VH: EVQLLESGGGLVQPGGSLRLSCAASGFTFSNYDMSWVRQAPGKGLEWVSGISHSSGSKYYADSVKGRFTISRDNSKNTLYLQMNSLRAEDTAVYYCARDPLPCLIPKCSYYYAMDVWGQGTLVTVSS
VL: QSVLTQPPSAPGTPGQRVTISCSGSSSNIGSNAVTWYQQLPGTAPKLLIYADSHRPSGVPDRFSGSKSGTSASLAISGLRSEDEADYYCGSWDDSLNAYVFGGGTKLTVLG
B3: C22 (antibody, human IgG4 S228P, lambda, V domains shown)
VH: EVQLLESGGGLVQPGGSLRLSCAASGFTFSDYDMSWVRQAPGKGLEWVSMIYSGSSSKYYADSVKGRFTISRDNSKNTLYLQMNSLRAEDTAVYYCAKAPLPFYFRPKSYYYAMDVWGQGTLVTVSS
VL: B2 VL with P11S, A33N, D52N, D94S
B4: C15 (antibody, human IgG4 S228P, lambda, V domains shown)
VH: EVQLLESGGGLVQPGGSLRLSCAASGFTFSSYSMSWVRQAPGKGLEWVSSISPNGGNKYYADSVKGRFTISRDNSKNTLYLQMNSLGAEDTAVYYCAKDPYNIYQPLFDYWGQGTLVTVSS
VL: QSVLTQPLSASGTPGQRVTISCSGSSSNIGNNYVNWYQQLPGTAPKLLIYANSNRPSGVPDRFSGSKSGTSASLAISGLRSEEEADYYCGTWDASLSAYVFGGGTKLTVLG
B5: C17 (antibody, human IgG4 S228P, lambda, V domains shown)
VH: EVQLLESGGGLVQPGGSLRLSCAASGFTFSDYSMSWVRQAPGKGLEWVSVIYPDDGNTYYADSVKGRFTISRDNSKNTLYLQMNSLRAEDTAVYYCARGSIWWLSLIPSSYNAMDVWGQGTLVAVSS
VL: B4 VL with L8P, Y33A, N54H, E83D, T91A, S97N, A98G

Where a chain is given by its changes, count along the chain named.

For the first experiment, the target named is T1, recombinant human CEACAM-1/CD66a …. Nature of the experiment: ELISA on coated antigen (0.25 µg/ml), antibody 3 µg/ml, HRP anti-human IgG Fc, OD450. From the text: (§1) All of the recombinant human CEACAM-1/CD66a protein (R&D systems; Cat No. 2244-CM, HCCM1), recombinant human CEACAM-5/CD66e protein (R&D systems; Cat. No. 4128-CM, HCCM5), recombinant human CEACAM-6/CD66c protein (R&D systems; Cat. No. 3934-CM, HCCM6), recombinant human CEACAM-3/CD66d protein (Sino Biological; Cat. No. 11933-H08H, HCCM3), human B7-H5/Gi24/VISTA protein (Sino Biological; Cat. No. 13482-H08H, HVISTA), recombinant human CEACAM-1/CD66a protein Bulk (R&D systems; Cat. No. 2244-CM, HCCM1 (bulk)), recombinant human CEACAM1-N domain-Kappa protein (Mogam, in-house production, HCCM1-N domain-kappa), and BSA protein (2.5 μg each) were dissolved in 10 ml of PBS, respectively, and dispensed into a 96-well plate at 100 μl/well, which was incubated at 4° C. overnight. Thereafter, each well was treated with 300 μl of 1% (v/v) bovine serum albumin, and incubated at 37° C. for 1 hour.
(§2) The diluted antibodies were dispensed into each well coated with each protein at 100 μl/well, and incubated at 37° C. for 1 hour. Then, each well was washed 3 times with a washing buffer prepared by diluting 10 μl of Tween 20 (Sigma-Aldrich; Cat. No. P9146) in 990 μl of PBS. Thereafter, 2 μl of HRP-conjugated human anti-IgG-Fc antibody (anti-human IgG Fc, Sigma Cat. No. A0170) was diluted in 10 ml of PBS, added to the wells at 100 μl/well, and incubated for 1 hour.
(§3) After completion of the reaction, the wells were washed three times with the washing buffer, and 100 μl of TMB solution was added to each well to induce color development. Then, 100 μl of 2 M H₂SO₄ was added to each well to stop the reaction, and the absorbance was measured at a wavelength of 450 nm.
For orientation: An ELISA detects its analyte on a solid surface through an enzyme-linked reagent.
On to B1, for which the binding result is recorded as “binds”.

B2: the binding result is given as “binds”. Same read-out and setting: next, B3: “binds”.

The target of the next experiment is T2, recombinant human CEACAM1-N …. The description is as above.
Source text: as §1, §2, §3
With B4, the binding result was “binds”.

Regarding B1, the binding result is “binds”. For B2, the binding result is “binds”. The same measure, in the same setting: for B3 the value was “binds”; for B5, “binds”.
